# Experimental data from US7811992B2, “Anti-infarction molecules” (Stasys Technologies, Inc., priority 2002, dated 2010).
# Read-outs that look alike come from different tables or passages of the source. Square brackets hold non-standard residues; d marks the D form. Side chains are listed from the residue outwards. Ends that are not written are not given here. Peptide text beside a SMILES is read from it. * marks the point of attachment. Acetyl(1-adamantyl) = O=C(CC12CC3CC(CC(C3)C1)C2)*; Hyp = O=C(O)[C@@H]1C[C@@H](O)CN1; 2Thi = N[C@@H](Cc1cccs1)C(=O)O; Nicotinoyl = O=C(c1cccnc1)*; Cbz = O=C(OCc1ccccc1)*
# How the values were obtained:
# [1] = target: T1, human angiotensin AT2 receptor (Homo sapiens, UniProt P50052); details: for Activity/inhibition ATII binding assay: compounds screened at 10 μM, % inhibition of binding at the AT2 receptor; for nH: reference data, Hill coefficient; for inhibition at 10 µM: read-out: % Inhibition ATII receptor; for % Inhibition ATII receptor: screened at 10 μM
# T1 sequence (P50052 1-363): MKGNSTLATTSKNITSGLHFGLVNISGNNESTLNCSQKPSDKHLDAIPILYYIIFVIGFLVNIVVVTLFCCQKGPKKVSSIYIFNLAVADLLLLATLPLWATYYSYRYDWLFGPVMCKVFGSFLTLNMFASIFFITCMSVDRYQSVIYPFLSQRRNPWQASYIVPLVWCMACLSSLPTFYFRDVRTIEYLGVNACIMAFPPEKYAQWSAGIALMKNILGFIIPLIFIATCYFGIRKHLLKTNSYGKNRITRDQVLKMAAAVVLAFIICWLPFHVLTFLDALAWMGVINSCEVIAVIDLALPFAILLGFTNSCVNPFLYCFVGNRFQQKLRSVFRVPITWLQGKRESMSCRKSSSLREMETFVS
# Method: HeLa cells stably transfected with a plasmid encoding the human angiotensin AT2 receptor were used to prepare membranes in modified Tris HCl pH 7.4 by standard techniques. […] Non-specific binding was estimated in the presence of 10 μM. […] Compounds were screened at 10 μM. The ATII binding studies were performed essentially like that disclosed in Whitebread, S. E. et al., Radioligand CGP42112A: a novel high affinity and high selective ligand for the characterization of angiotensin AT2 receptors.
# Serotonin 5-HT 2a = Serotonin 5-HT 2a (Homo sapiens, UniProt P28223); experiment: Receptor panel screen, ligand-receptor binding, FPAh 10 μM: Serotonin 5-HT 2a
# Chain of Serotonin 5-HT 2a (P28223 whole entry): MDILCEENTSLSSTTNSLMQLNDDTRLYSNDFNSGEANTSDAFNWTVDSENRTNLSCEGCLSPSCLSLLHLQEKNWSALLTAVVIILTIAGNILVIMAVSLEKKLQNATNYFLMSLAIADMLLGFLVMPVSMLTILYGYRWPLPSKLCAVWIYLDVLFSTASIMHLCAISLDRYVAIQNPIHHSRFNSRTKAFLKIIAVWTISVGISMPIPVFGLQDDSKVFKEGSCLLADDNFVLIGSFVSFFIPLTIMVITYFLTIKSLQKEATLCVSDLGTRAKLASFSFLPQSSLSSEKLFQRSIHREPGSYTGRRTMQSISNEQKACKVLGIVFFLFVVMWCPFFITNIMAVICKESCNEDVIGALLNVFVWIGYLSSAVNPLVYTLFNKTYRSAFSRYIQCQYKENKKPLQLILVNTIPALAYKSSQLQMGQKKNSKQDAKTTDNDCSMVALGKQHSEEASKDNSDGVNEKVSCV
# From the text: (§1) For example, FPA was used in a screen of 150 receptors to determine which receptors FPA could interact with. One way of assessing FPA interactions is to look at the amount that FPA can modulate a given receptor relative to its natural ligand. Disclosed in tables 13 and 14 are ligand-receptor binding studies that are, for example, modulated by more than 20% (inhibition or excitation) by the human form of Fibrinopeptide-A (FPA-h).
# Estrogen ERa = target: T2, Estrogen ERa (Homo sapiens, UniProt P03372); experiment: Receptor panel screen, ligand-receptor binding, FPAh 10 μM: Estrogen ERa
# T2 sequence (P03372 1-595): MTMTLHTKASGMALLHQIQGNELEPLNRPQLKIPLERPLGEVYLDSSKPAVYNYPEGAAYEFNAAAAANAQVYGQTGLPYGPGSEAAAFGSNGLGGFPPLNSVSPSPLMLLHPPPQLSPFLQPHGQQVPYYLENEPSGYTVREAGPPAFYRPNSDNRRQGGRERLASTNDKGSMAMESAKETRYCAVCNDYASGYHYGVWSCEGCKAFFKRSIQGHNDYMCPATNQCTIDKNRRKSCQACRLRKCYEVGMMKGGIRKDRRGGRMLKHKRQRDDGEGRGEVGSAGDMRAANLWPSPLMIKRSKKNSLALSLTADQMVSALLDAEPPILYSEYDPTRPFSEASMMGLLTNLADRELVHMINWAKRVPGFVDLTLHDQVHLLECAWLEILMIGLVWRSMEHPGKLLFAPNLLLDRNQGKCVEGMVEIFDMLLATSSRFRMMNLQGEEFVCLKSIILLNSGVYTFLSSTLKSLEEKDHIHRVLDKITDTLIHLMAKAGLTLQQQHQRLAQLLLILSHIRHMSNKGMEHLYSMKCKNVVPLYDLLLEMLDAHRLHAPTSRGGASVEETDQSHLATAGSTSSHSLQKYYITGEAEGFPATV
# From the text: as §1
# Bradykinin B1 = target: T3, Bradykinin B1 (Homo sapiens, UniProt P46663); experiment: Receptor panel screen, ligand-receptor binding, FPAh 10 μM: Bradykinin B1
# T3 sequence (P46663 1-353): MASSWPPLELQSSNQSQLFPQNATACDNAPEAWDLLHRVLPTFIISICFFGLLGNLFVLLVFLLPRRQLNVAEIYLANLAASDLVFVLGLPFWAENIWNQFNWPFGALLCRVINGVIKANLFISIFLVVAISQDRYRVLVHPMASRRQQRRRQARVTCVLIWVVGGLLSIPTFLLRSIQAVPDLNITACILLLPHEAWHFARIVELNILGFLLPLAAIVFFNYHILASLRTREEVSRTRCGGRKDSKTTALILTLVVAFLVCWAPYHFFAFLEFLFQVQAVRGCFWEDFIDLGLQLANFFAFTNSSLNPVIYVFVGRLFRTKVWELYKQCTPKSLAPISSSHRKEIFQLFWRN
# From the text: as §1
# Potassium Channel [Ka] = experiment: Receptor panel screen, ligand-receptor binding, FPAh 10 μM: Potassium Channel [Ka]
# From the text: as §1
# Glutamate AMPA = experiment: Receptor panel screen, ligand-receptor binding, FPAh 10 μM: Glutamate AMPA
# From the text: as §1
# [2] = tested on: Vascular endothelial growth factor; experiment: Receptor panel screen, ligand-receptor binding, FPAh 10 μM: Vascular endothelial growth factor
# From the text: as §1
# [3] = tested on: Inositol Triphosphate IP3; experiment: Receptor panel screen, ligand-receptor binding, FPAh 10 μM: Inositol Triphosphate IP3
# From the text: as §1
# [4] = target: T4, Thyrotropin Releasing Hormone (Homo sapiens, UniProt P34981); experiment: Receptor panel screen, ligand-receptor binding, FPAh 10 μM: Thyrotropin Releasing Hormone
# T4 sequence (P34981 1-398): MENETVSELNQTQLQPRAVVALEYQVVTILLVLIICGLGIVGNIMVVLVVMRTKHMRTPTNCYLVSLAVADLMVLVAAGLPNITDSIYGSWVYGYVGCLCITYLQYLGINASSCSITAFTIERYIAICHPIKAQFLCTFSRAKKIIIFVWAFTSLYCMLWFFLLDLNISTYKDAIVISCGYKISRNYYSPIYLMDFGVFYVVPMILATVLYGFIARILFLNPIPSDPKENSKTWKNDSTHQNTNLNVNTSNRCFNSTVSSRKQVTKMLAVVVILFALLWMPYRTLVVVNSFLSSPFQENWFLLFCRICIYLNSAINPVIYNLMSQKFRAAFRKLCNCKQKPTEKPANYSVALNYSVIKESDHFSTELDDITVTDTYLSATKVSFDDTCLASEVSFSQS
# From the text: as §1
# Cholecystokinin = experiment: Receptor panel screen, ligand-receptor binding, FPAh 10 μM: Cholecystokinin
# From the text: as §1
compound,measurement,setting,value
NC(N)=NCCC[C@H](NC(=O)[C@H](Cc1ccccc1)NC(=O)[C@@H]1CCCN1C(=O)[C@H](CO)NC(=O)[C@H](Cc1ccccc1)NC(=O)CNC(=O)[C@@H]1CCCN1C(=O)[C@@H]1CCCN1C(=O)[C@@H](N)CCCN=C(N)N)C(=O)O [Bradykinin],Activity/inhibition ATII binding assay,[1]; 10 µM,12%
"CC[C@H](C)[C@H](NC(=O)[C@@H]1CCCN1C(=O)[C@H](Cc1c[nH]cn1)NC(=O)[C@H](CCCCNC(=O)[C@H](CCCNC(=N)N)NC(=O)OCc1ccccc1)NC(=O)[C@H](Cc1ccc(O)cc1)NC(=O)c1cccnc1)C(=O)O [CGP-42112A, nicotinic acid-Tyr-(N-benzoylcarbonyl-Arg)Lys-His-Pro-Ile-OH, reference compound] (Nicotinoyl-YK([Arg-Cbz])HPI-OH)",nH,[1],1.1
CNCC(=O)N[C@@H](CCCN=C(N)N)C(=O)N[C@H](C(=O)N[C@@H](Cc1ccc(O)cc1)C(=O)N[C@H](C(=O)N[C@@H](Cc1cnc[nH]1)C(=O)N1CCC[C@H]1C(=O)N[C@@H](C)C(=O)O)C(C)C)C(C)C [Saralasin],nH,[1],0.9
N=C(N)NCCC[C@H](NC(=O)[C@H](Cc1cccs1)NC(=O)[C@@H](Cc1ccccc1)NC(=O)[C@H](CO)NC(=O)[C@H](Cc1cccs1)NC(=O)CNC(=O)[C@@H]1CCCN1C(=O)[C@@H]1CCCN1C(=O)[C@@H](N)CCCNC(=N)N)C(=O)O [VP045] (H-RPPG[2Thi]S[dF][2Thi]R-OH),inhibition at 10 µM,[1],53%
N=C(N)NCCC[C@H](NC(=O)[C@H](Cc1cccs1)NC(=O)[C@@H](Cc1ccccc1)NC(=O)[C@H](CO)NC(=O)[C@H](Cc1cccs1)NC(=O)CNC(=O)[C@@H]1C[C@@H](O)CN1C(=O)[C@@H]1CCCN1C(=O)[C@H](CCCNC(=N)N)NC(=O)[C@@H](CCCNC(=N)N)NC(=O)CC12CC3CC(CC(C3)C1)C2)C(=O)O [VP046] ({Acetyl(1-adamantyl)}-[dR]RP[Hyp]G[2Thi]S[dF][2Thi]R-OH),inhibition at 10 µM,[1],61%
"CC[C@H](C)[C@H](NC(=O)[C@@H]1CCCN1C(=O)[C@H](Cc1c[nH]cn1)NC(=O)[C@@H](NC(=O)[C@H](Cc1ccc(O)cc1)NC(=O)[C@@H](NC(=O)[C@H](CCCNC(=N)N)NC(=O)CNC)C(C)C)[C@@H](C)CC)C(=O)O [[Sar^1, Ile^8] Angiotensin II]",nH,[1],1.0
"(DArg-Arg-Pro-Hyp-Gly-Thi-Ser-DTic-Oic-Arg (XRPXGXSXXR; D-residues; non-natural residues) [Hoe 140, reference compound]",Activity/inhibition ATII binding assay,[1],29%
"ADSGE GDFLAEGGGVR (ADSGEGDFLAEGGGVR) [FPA-h, synthesized human Fibrinopeptide-A]",Stimulated,Serotonin 5-HT 2a,21%
same,Inhibited,Estrogen ERa,33%
same,Inhibited,Bradykinin B1,24%
same,Inhibited,Potassium Channel [Ka],25%
same,Stimulated,Glutamate AMPA,30%
same,Stimulated,[2],22%
same,Inhibited,[3],33%
same,Inhibited,[4],23%
same,Inhibited,Cholecystokinin,33%
Arg-Pro-Pro (RPP) [Bradykinin (1-3)],Activity/inhibition ATII binding assay,[1],−2%
Arg-Pro-Pro-Gly-Phe (RPPGF) [Bradykinin (1-5)],Activity/inhibition ATII binding assay,[1],1%
Arg-Pro-Pro-Gly-Phe-Ser-DPhe-Phe-Arg (RPPGFS[dF]FR) [DPhe7] Bradykinin],Activity/inhibition ATII binding assay,[1],60 9%
"Arg-Pro-Pro-Gly-Thi-Ser-DPhe-Thi-Arg (RPPG[2Thi]S[dF][2Thi]R) [[Thi5,8,DPhe7] Bradykinin]",Activity/inhibition ATII binding assay,[1],53%
DArg-Arg-Pro-Hyp-Gly-Igl-Ser-Dlgl-Oic-Arg (XRPXGXSXXR; D-residues; non-natural residues) [B9430],Activity/inhibition ATII binding assay,[1],70%
DArg-Arg-Pro-Hyp-Gly-Thi-Ser-Dlgl Oic-Arg (XRPXGXSXXR; D-residues; non-natural residues) [B9340],Activity/inhibition ATII binding assay,[1],35%
N-Adamantaneacetyl-DArg-Arg-Pro-Hyp-Gly-Thi-Ser-DPhe-Thi-Arg,Activity/inhibition ATII binding assay,[1],61%
"N-Admantanecarbonyl-DArg0-HyP3, Thi5,8, DPhe7] Bradykinin",Activity/inhibition ATII binding assay,[1],63%
PPGFSP [Bradykinin (2-7)],Activity/inhibition ATII binding assay,[1],−6%
PPGFSPFR [Bradykinin (2-9)],Activity/inhibition ATII binding assay,[1],−13%
RPPGFS [Bradykinin (1-6)],Activity/inhibition ATII binding assay,[1],−12%
VP042 (XRPXGXSXXR; D-residues; non-natural residues),% Inhibition ATII receptor,[1],29%
VP043 (RPPGFS[dF]FR),% Inhibition ATII receptor,[1],9%
VP052 (RPPGFSPYR),% Inhibition ATII receptor,[1],−1%
VP057 (RPP),% Inhibition ATII receptor,[1],−2%
VP058 (RPPGF),% Inhibition ATII receptor,[1],1%
VP059 (RPPGFS),% Inhibition ATII receptor,[1],−12%
VP061 (PPGFSP),% Inhibition ATII receptor,[1],−6%
VP062 (PPGFSPFR),% Inhibition ATII receptor,[1],−13%
VP063 (XRPXGXSXXR; D-residues; non-natural residues),% Inhibition ATII receptor,[1],35%
VP064 (XRPXGXSXXR; D-residues; non-natural residues),% Inhibition ATII receptor,[1],70%
